{"source": "paper PMC7810697", "about": "“Sarcolipin alters SERCA1a interdomain communication by impairing binding of both calcium and ATP” (Scientific Reports, 2021)", "key": {"[1]": {"target": "native SERCA1a in DDM-solubilized rabbit sarco-endoplasmic reticulum membranes (rabbit) (UniProt P04191)", "sequence (P04191 other isoform, or with tags, fused parts or gaps)": "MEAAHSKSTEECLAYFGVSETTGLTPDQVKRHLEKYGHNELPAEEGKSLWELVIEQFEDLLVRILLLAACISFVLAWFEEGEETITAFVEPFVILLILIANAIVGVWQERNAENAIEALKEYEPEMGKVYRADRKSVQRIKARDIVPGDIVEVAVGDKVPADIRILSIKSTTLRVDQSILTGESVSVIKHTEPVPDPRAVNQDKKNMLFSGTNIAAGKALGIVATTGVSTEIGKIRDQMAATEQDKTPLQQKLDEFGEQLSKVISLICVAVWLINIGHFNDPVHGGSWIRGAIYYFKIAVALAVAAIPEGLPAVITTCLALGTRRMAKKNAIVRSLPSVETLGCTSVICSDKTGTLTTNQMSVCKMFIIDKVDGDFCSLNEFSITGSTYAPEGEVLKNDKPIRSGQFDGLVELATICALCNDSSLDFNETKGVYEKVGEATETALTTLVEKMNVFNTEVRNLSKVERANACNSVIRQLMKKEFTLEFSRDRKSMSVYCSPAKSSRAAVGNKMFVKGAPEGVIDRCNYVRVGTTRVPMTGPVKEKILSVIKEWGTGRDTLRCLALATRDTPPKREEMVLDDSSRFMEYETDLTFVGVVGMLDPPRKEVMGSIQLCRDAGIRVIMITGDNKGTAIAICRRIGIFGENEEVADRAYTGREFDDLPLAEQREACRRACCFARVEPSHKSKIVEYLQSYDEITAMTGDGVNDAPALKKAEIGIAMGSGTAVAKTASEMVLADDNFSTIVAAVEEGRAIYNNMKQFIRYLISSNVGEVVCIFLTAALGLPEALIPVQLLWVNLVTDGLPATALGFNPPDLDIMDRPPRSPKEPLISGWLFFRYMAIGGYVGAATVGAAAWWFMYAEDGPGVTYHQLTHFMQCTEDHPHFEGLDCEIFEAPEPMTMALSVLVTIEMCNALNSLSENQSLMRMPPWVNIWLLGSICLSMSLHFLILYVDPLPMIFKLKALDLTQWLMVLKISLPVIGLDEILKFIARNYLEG"}, "[2]": {"target": "recombinant wild-type rabbit SERCA1a (sarco-endoplasmic reticulum Ca2+-ATPase, isoform 1a) expressed in S. cerevisiae (rabbit) (UniProt P04191)", "sequence (P04191 other isoform, or with tags, fused parts or gaps)": "as above"}, "[3]": {"target": "native SERCA1a in DDM-solubilized rabbit sarco-endoplasmic reticulum membranes (rabbit) (UniProt P04191)", "remark": "listed apart in the source"}, "[4]": {"target": "recombinant wild-type rabbit SERCA1a (sarco-endoplasmic reticulum Ca2+-ATPase, isoform 1a) expressed in S. cerevisiae (rabbit) (UniProt P04191)", "remark": "listed apart in the source"}}, "data": [{"substance": "chemically synthesized S-palmitoylated rabbit sarcolipin (peptide)", "values": [{"measurement": "IC50 of inhibition of the phosphoenzyme level, as told in the discussion (mol added SLN/mole of SERCA1a)", "setting": "[1]", "result": 5.6}, {"measurement": "IC50 of inhibition of the phosphoenzyme level, as told in the discussion (mol of added SLN/mole of SERCA1a)", "setting": "[2]", "result": 5}, {"measurement": "SLN:SERCA1a ratio at half-inhibition of the phosphoenzyme level (ratios 1:1 to 1:50) (mol SLN added per mole of SERCA1a)", "setting": "[3]", "result": 5.9}, {"measurement": "amplitude of the inhibition of the phosphoenzyme level (dose-response fit)", "setting": "[3]", "result": 28.1, "unit": "%"}, {"measurement": "SLN:SERCA1a ratio at half-inhibition of the phosphoenzyme level (ratios 1:1 to 1:50) (mol SLN added per mole of SERCA1a)", "setting": "[4]", "result": 5.1}, {"measurement": "amplitude of the inhibition of the phosphoenzyme level (dose-response fit)", "setting": "[4]", "result": 31.2, "unit": "%"}, {"measurement": "t1/2 of phosphorylation from [γ32P]ATP starting from a calcium-deprived state, Sarcolipin:SERCA1a 10:1 (6.8 without SLN)", "setting": "[4]", "result": 13.5, "unit": "s"}]}, {"substance": "chemically synthesized non-palmitoylated rabbit sarcolipin (peptide)", "values": [{"measurement": "IC50 of inhibition of the phosphoenzyme level, as told in the discussion (mol added SLN/mole of SERCA1a)", "setting": "[1]", "result": 2.9}, {"measurement": "IC50 of inhibition of the phosphoenzyme level, as told in the discussion (mol of added SLN/mole of SERCA1a)", "setting": "[2]", "result": 4.5}, {"measurement": "SLN:SERCA1a ratio at half-inhibition of the phosphoenzyme level (ratios 1:1 to 1:50) (mol SLN added per mole of SERCA1a)", "setting": "[3]", "result": 3.1}, {"measurement": "amplitude of the inhibition of the phosphoenzyme level (dose-response fit)", "setting": "[3]", "result": 19, "unit": "%"}, {"measurement": "SLN:SERCA1a ratio at half-inhibition of the phosphoenzyme level (ratios 1:1 to 1:50) (mol SLN added per mole of SERCA1a)", "setting": "[4]", "result": 4.7}, {"measurement": "amplitude of the inhibition of the phosphoenzyme level (dose-response fit)", "setting": "[4]", "result": 28.6, "unit": "%"}, {"measurement": "t1/2 of phosphorylation from [γ32P]ATP starting from a calcium-deprived state, Sarcolipin:SERCA1a 10:1 (6.8 without SLN)", "setting": "[4]", "result": 13.7, "unit": "s"}]}]}
